The assay deals with T1, HLA-A*03:01 (human).
T1 construct: MHC class I monomer first loaded with a UV-sensitive peptide that is cleaved by UV irradiation and exchanged for the test peptide; captured on streptavidin plates; also called peptide-receptive MHC molecules
In words: UV-ligand exchange, anti-b2m ELISA; peptide exchange yield grade (>10% +, >20% ++, >50% +++, >75% ++++). An excerpt: Candidate peptides for T cell based therapies according to the present invention were further tested for their MHC binding capacity (affinity). The individual peptide-MHC complexes were produced by UV-ligand exchange, where a UV-sensitive peptide is cleaved upon UV-irradiation and exchanged with the peptide of interest as analyzed. Only peptide candidates that can effectively bind and stabilize the peptide-receptive MHC molecules prevent dissociation of the MHC complexes. To determine the yield of the exchange reaction, an ELISA was performed based on the detection of the light chain (β2m) of stabilized MHC complexes. The assay was performed as generally described in Rodenko et al. (Rodenko et al., 2006)
96 well MAXISorp plates (NUNC) were coated over night with 2 ug/ml streptavidin in PBS at room temperature, washed 4× and blocked forl h at 37° C. in 2% BSA containing blocking buffer. Refolded HLA-A*02:01/MLA-001 monomers served as standards, covering the range of 15-500 ng/ml. Peptide-MHC monomers of the UV-exchange reaction were diluted 100-fold in blocking buffer. Samples were incubated for 1 h at 37° C., washed four times, incubated with 2 ug/ml HRP conjugated anti-β2m for 1 h at 37° C., washed again and detected with TMB solution that is stopped with […]. Absorption was measured at 450 nm.
For orientation: In an ELISA, binding on a coated surface is turned into a signal by an enzyme label.
As for TIASVLVAR, the peptide exchange yield fell in the range of 20 to 50%.
For the molecule TRMQKAGFLYY, the peptide exchange yield lay in the range of 20 to 50%.
Under RLRDYISSLK stands over 75%; under VSLSKMLKK, 50 to 75%; under LASSPAGHK, 50 to 75%.
With GGLSSQGVYY the figure was 20 to 50%; with SLRGSFPILY, 10 to 20%.
ATIGLSVSK: the peptide exchange yield is over 75%.
With KLFMPRPK the figure was 50 to 75%; with MKTLPAMLGTGK, 20 to 50%.
Under MLYYPSVSR stands over 75%; under KIKKPLSYR, over 75%.
With IIFIPATILLK the figure was over 75%; with AVVQGLVEK, 20 to 50%.
VSIRNTLLY gave a peptide exchange yield of 10 to 20%.
Under ATNGKVLKK stands over 75%; under AILHPFRAK, 50 to 75%; under VAFFVLPSK, 20 to 50%.
As for KIICGVHYLY, the peptide exchange yield lay within 10 to 20%.
Under TLLSYELAFK stands over 75%; under ALARVSSVKL, 50 to 75%; under VVYDTMIEK, 50 to 75%.
As to TVYVAMCHKF, the peptide exchange yield was over 75%.
VSLGIAVSK showed a peptide exchange yield of 20 to 50%.
Consider RLAQYTIER, for which the peptide exchange yield is over 75%.
AATIISSAK: the peptide exchange yield fell in the range of 10 to 20%.
Molecule SPRVYWLGLNDR displayed a peptide exchange yield of 10 to 20%.
With KTLGKIAEK, the peptide exchange yield was over 75%.
Consider ILNLNKMVK, for which the peptide exchange yield fell in the range of 50 to 75%.
VSYNRLIK registered a peptide exchange yield of 50 to 75%.
With RVDSKQRYY the figure was over 75%.
With ATSPPASVR the figure was over 75%.
Turning to RLYAPVVNISRL, the peptide exchange yield fell in the range of 50 to 75%.
Under RLLPGKVVWK stands over 75%; under RALGVPFVPR, over 75%; under VVYDTMIEKF, over 75%.
Under QVLDLQSVK stands 20 to 50%; under KVFAEHKISY, 50 to 75%.
On to SLLKPSGDYFK, for which the peptide exchange yield fell in the range of 50 to 75%.
Molecule AVAFFVLPSK gave a peptide exchange yield of over 75%.
In turn, SLLTVSGAWAK yielded a peptide exchange yield of over 75%.
With SLFEGIYTIK the figure was over 75%.
With TVFLSKYLKK, the peptide exchange yield was in the range of 50 to 75%.
Under RVYPHKTLY stands 50 to 75%; under GLAAGALLLY, 20 to 50%; under RIGNKGIYK, 50 to 75%.
Under ALSRMSQQY stands over 75%; under LLLAAVTVK, 20 to 50%.
TVFVELWLK: the peptide exchange yield is 20 to 50%.
Under KLQNLPTLLY stands 50 to 75%.
Molecule LLRSGLTLR gave a peptide exchange yield of 20 to 50%.
With SLLEADPFLK the figure was 50 to 75%; with RMGFRTLSK, over 75%.
As for ATNGKVLKKR, the peptide exchange yield was over 75%.
With ASLAAAVLAK, the peptide exchange yield was 50 to 75%.
With ASSFRPLLSK the figure was 50 to 75%.
Under LIGPLLICK stands over 75%; under SIYKKAVYR, over 75%.
PLAMLAATCNK showed a peptide exchange yield of 20 to 50%.
Take KVLTRNIEY: the peptide exchange yield was in the range of 50 to 75%.
With KVASFTVIGY, the peptide exchange yield is 50 to 75%.

These data come from US20200000897A1 (published 2020).
